Assay [1] deals with potato lectin (Sigma) (potato) (UniProt Q9S8M0). The assay is described as follows: ELISA-like assay, Uvitex OB microcapsules on potato lectin-coated wells, surface coverage 4%. In general terms: An ELISA detects its analyte on a solid surface through an enzyme-linked reagent.
Assay [2] has the same target. Description: ELISA-like assay, Uvitex OB microcapsules on potato lectin-coated wells, surface coverage 20%.
For assay [3] the target is unchanged. The assay is described as follows: ELISA-like assay, Uvitex OB microcapsules on potato lectin-coated wells, surface coverage 100%.
For assay [4] the target is unchanged. The assay is described as follows: ELISA-like assay, lambda-cyhalothrin microcapsules on potato lectin-coated wells, surface coverage 4%.
Assay [5] shares this target. The assay is described as follows: ELISA-like assay, lambda-cyhalothrin microcapsules on potato lectin-coated wells, surface coverage 20%.
The target is the same in assay [6]. Description: ELISA-like assay, lambda-cyhalothrin microcapsules on potato lectin-coated wells, surface coverage 100%.
Assay [7] has the same target. Description: ELISA-like assay, Uvitex microcapsules on wells coated with 5 ug/well potato lectin, surface coverage 4%.
Assay [8] shares this target. Description: ELISA-like assay, Uvitex microcapsules on wells coated with 5 ug/well potato lectin, surface coverage 20%.
The target is the same in assay [9]. The assay is described as follows: ELISA-like assay, Uvitex microcapsules on wells coated with 5 ug/well potato lectin, surface coverage 100%.
For assay [10], the target named is T1, potato lectin (Sigma) (potato, UniProt Q9S8M0 23-323).
T1 construct: Bought glycoprotein coated on ELISA plates
T1 sequence (looked up): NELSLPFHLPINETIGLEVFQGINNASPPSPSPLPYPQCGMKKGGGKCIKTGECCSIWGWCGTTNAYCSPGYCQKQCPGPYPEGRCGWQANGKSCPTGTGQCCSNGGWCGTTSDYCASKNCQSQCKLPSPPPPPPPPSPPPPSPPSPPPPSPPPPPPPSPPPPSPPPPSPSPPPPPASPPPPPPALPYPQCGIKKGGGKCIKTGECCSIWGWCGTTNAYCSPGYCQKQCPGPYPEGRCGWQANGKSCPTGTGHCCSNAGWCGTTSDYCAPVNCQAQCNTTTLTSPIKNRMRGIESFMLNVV
Description: ELISA, potato lectin coated at 100 ug/ml, VHH at 3 ug/ml, anti-histidine detection. As for the experimental part: ELISA plates (Maxisorp, Nunc) coated with 100 μl per well 100 μg/ml potato lectin (Sigma) in PBS were coated at 4° C. overnight and coating was continued at room temperature for 1 hour on the next day. Plates were washed three times with PBS/0.05%-TWEEN®-20 and blocked with 5% skimmed milk in PBS for 1 hour. VHH (3 μg/ml) were transferred to the potato lectin-coated plates and VHH antibody fragments were allowed to bind for 1 hour at room temperature. Bound VHH were detected with sequential incubations with monoclonal mouse anti-histidine antibodies (Abd Serotec) and rabbit anti-mouse IgG whole molecule antibodies conjugated with alkaline phosphatase (RaM/AP) (Sigma) in 1% MPBS/0.05%-TWEEN®-20. Unbound antibodies were removed by washing three times with PBS/0.05%-TWEEN®-20 after each antibody incubation. The plates were washed an additional two times with PBS and 100 μl pNPP disodium hexahydrate substrate (Sigma) was added to each well and the absorbance at 405 nm was measured (see Table 2).

For assay [11], the target named is unrelated antigen. The assay is described as follows: ELISA-like assay, Uvitex microcapsules on wells coated with unrelated antigen, surface coverage 4%.
Assay [12] has as its target unrelated antigen. The assay is described as follows: ELISA-like assay, Uvitex microcapsules on wells coated with unrelated antigen, surface coverage 20%.
Assay [13] deals with unrelated antigen. Description: ELISA-like assay, Uvitex microcapsules on wells coated with unrelated antigen, surface coverage 100%.
Assay [14] has as its target T1, potato lectin (Sigma). Description: ELISA-like assay, Uvitex microcapsules on potato lectin-coated wells, 25-fold less microcapsules. The procedure: An ELISA-like assay was performed using high bind half area microplates (Greiner Bio-One) coated with 5 μg/well potato lectin. Control wells included blank wells or wells coated with unrelated antigens. Plates were washed three times with PBS with 0.05%-TWEEN®-20 and blocked with 5% skimmed milk in PBS for 1 to 2 hours. VHH-coupled Uvitex-containing microcapsules were diluted to appropriate densities in 1% skimmed milk in PBS with 0.05%-TWEEN®-20. Five-fold serial dilution series were prepared and allowed to bind to the surface to compare binding of microcapsules coupled with monovalent or bivalent VHH. Microcapsules were added to the antigen-coated or control wells and allowed to bind for 1 hour. Unbound microcapsules were removed by washing five times with PBS with 0.05%-TWEEN®-20. The bottoms of ELISA plate wells were analyzed for bound microcapsules on a macrozoom microscope system (Nikon). Microcapsules were counted using Volocity image analysis software (Perkin Elmer). A DAPI filter was used to visualize Uvitex microcapsules. […] The surface area of microcapsules with coupled bivalent VHH was 15-fold above the surface area of blank microcapsules applied at this microcapsule density while the surface area of microcapsules with monovalent VHH was only six-fold above the surface area of blank microcapsules applied at this microcapsule density. […]

For the molecule “unrelated control VHH coupled to microcapsules”, the area of bound microcapsules (area (unit not given)) in assay [1] was 7.53; in assay [2], 35.4; in [3], 16.7. Moreover, the counts of bound microcapsules stood at 348 counts in assay [4], 709 counts in [5] and 828 counts in [6]. Moreover, the surface area of bound microcapsules (area (unit not given)) in [7] amounted to 19.2; in assay [8], 43.5; in [9] it was 142.

B1: VHH 5C4 (VHH)
VHH: QVQLQESGGGLVQPGGSLRLSCAASGFSLRYFGIGWFRQVAGKEREPVSCSNVRDGNTYYADSVKGRFTISRDNVRNTLYLQMNSLKPEDTAVYSCATTDCEATTWGTYRGYFGQGTQVTVSS
notes: not shown: hexahistidine tag
Turning to B1, the “absorbance at 405 nm” value in assay [10] was 4 A405.

B2: VHH 5G5 (VHH)
VHH: QVQLQESGGGLVQPGGSLRLSCAASGFSLRYFGIGWFRQAAGKEREGISCSNVRDGNTYYADSVKGRFTISRDNVRNMLYLQMNNLKPDDTAVYSCATTDCEATTWGTYRGYFGQGTQVTVSS
notes: not shown: hexahistidine tag
Turning to B2, in assay [10], the “absorbance at 405 nm” value was found to be 4 A405.

B3: Bivalent VHH 3E6 coupled to polyurea microcapsules (VHH)
chain: QVQLQESGGGLVQPGGTLSLSCAASGFNVRWYGMGWFRQAPGKEREGVACISALQETTAYADSVKGRFTLSRDNPKNTLSLQMNNLQPEDTGVYYCATTDCDDSSRMTYTSYLGQGTQVTVSSGGGGSGGGSQVQLQESGGGLVQPGGTLSLSCAASGFNVRWYGMGWFRQAPGKEREGVACISALQETTAYADSVKGRFTLSRDNPKNTLSLQMNNLQPEDTGVYYCATTDCDDSSRMTYTSYLGQGTQVTVSSAAAEQKLISEEDLNGAAHHHHHH
modifications: coupled by carbodiimide chemistry to the microcapsule shell
Consider B3, for which the results for the surface area of bound microcapsules (area (unit not given)) in assay [11], in assay [12] and in [13] were 15, 22.1 and 45.7, respectively. For the same molecule, the “fold surface area above blank microcapsules” value in [14] is 15 fold.

B4: VHH 7D2 (VHH)
VHH: QVQLQESGGGLVQPGRSLKVACAAAGFSLRYYGIGWFRQAPGKEREAVSCTSANDGSTYYRDSVRGRFTISRDDGKNTVYLQMNRLKPEDTAVYYCATTDCDATSWGTWINYYGQGTQVTVSS
notes: not shown: hexahistidine tag
As for B4, in [10], the “absorbance at 405 nm” value came out at 4 A405.

B5: VHH 3E6 (VHH)
VHH: QVQLQESGGGLVQPGGTLSLSCAASGFNVRWYGMGWFRQAPGKEREGVACISALQETTAYADSVKGRFTLSRDNPKNTLSLQMNNLQPEDTGVYYCATTDCDDSSRMTYTSYLGQGTQVTVSS
notes: Purified hexahistidine-tagged VHH from E. coli periplasm; not shown: hexahistidine tag
With B5, the “absorbance at 405 nm” value in assay [10] amounted to 4 A405.

B6: VHH 3E6 coupled to polyurea microcapsules (VHH)
VHH: QVQLQESGGGLVQPGGTLSLSCAASGFNVRWYGMGWFRQAPGKEREGVACISALQETTAYADSVKGRFTLSRDNPKNTLSLQMNNLQPEDTGVYYCATTDCDDSSRMTYTSYLGQGTQVTVSS
modifications: coupled by carbodiimide (EDC) chemistry to carboxylic acid groups on the microcapsule shell
notes: also called Monovalent VHH 3E6; monovalent VHH; not shown: hexahistidine tag
On to B6, for which, in [14], the “fold surface area above blank microcapsules” value is 6 fold.

B7: VHH 5D4 (VHH)
VHH: QVQLQESGGGLVQPGGSLRLSCAASGFDMRRFGIGWFRQVAGKEREGVSCSNVHDGTTYYTNDVKGRFTIVRDNTKNMLYLQMNKLRPEDTAVYSCATTDCEATAWGTYRGYFGQGTQVTVSS
notes: not shown: hexahistidine tag
For the molecule B7, the “absorbance at 405 nm” value in assay [10] came out at 4 A405.

These data come from patent publication US20170295781A1 (AGROSAVFE N V, published 2017).
